system: Escherichia coli TOP10; test: shrunken log2 fold change of peptide-encoding DNA abundance (4.5 h post-induction vs induction); higher = less antimicrobial activity (less host growth inhibition); conditions: time post-induction: 4.5 h; library: site-saturation at positions 5, 18, 19, 20
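Further: peptides expressed intracellularly from a pBAD plasmid library in pooled LB shake-flask culture, induced with 0.3% L-arabinose, DNA abundance read by NGS, three biological replicates, DESeq2 with apeglm shrinkage.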

Row | Sequence | shrunken log2 fold change
1 | RRIRNRPPRLPRPRPRPKHPPRP | 0.111
2 | RRIRNRPPRLPRPRPRPKHQPRP | 0.124
3 | RRIRNRPPRLPRPRPRPKIIPRP | -0.118
4 | RRIRNRPPRLPRPRPRPKIKPRP | -0.256
5 | RRIRNRPPRLPRPRPRPKKFPRP | -0.0756
6 | RRIRNRPPRLPRPRPRPKKHPRP | -0.315
7 | RRIRNRPPRLPRPRPRPKLGPRP | 0.055
8 | RRIRNRPPRLPRPRPRPKLNPRP | -0.208
9 | RRIRNRPPRLPRPRPRPKLVPRP | 0.163
10 | RRIRNRPPRLPRPRPRPKMMPRP | -0.249
11 | RRIRNRPPRLPRPRPRPKMYPRP | -0.0156
12 | RRIRNRPPRLPRPRPRPKPFPRP | -0.104
13 | RRIRNRPPRLPRPRPRPKPPPRP | 0.436
14 | RRIRNRPPRLPRPRPRPKQCPRP | -0.293
15 | RRIRNRPPRLPRPRPRPKQLPRP | 0.252
16 | RRIRNRPPRLPRPRPRPKQPPRP | 0.00591
17 | RRIRNRPPRLPRPRPRPKRDPRP | 0.411
18 | RRIRNRPPRLPRPRPRPKSSPRP | -0.0182
19 | RRIRNRPPRLPRPRPRPKVHPRP | 0.0346
20 | RRIRNRPPRLPRPRPRPKVSPRP | 0.264
21 | RRIRNRPPRLPRPRPRPKWDPRP | 0.0992
22 | RRIRNRPPRLPRPRPRPKWMPRP | -0.19
23 | RRIRNRPPRLPRPRPRPKWSPRP | 0.0717
24 | RRIRNRPPRLPRPRPRPLALPRP | -0.239
25 | RRIRNRPPRLPRPRPRPLDQPRP | -0.266

Row | Sequence | shrunken log2 fold change
26 | RRIRNRPPRLPRPRPRPLERPRP | 0.0661
27 | RRIRNRPPRLPRPRPRPLEYPRP | -0.816
28 | RRIRNRPPRLPRPRPRPLGDPRP | 0.218
29 | RRIRNRPPRLPRPRPRPLGTPRP | 0.135
30 | RRIRNRPPRLPRPRPRPLHHPRP | -0.39
31 | RRIRNRPPRLPRPRPRPLHTPRP | 0.0669
32 | RRIRNRPPRLPRPRPRPLIPPRP | -0.208
33 | RRIRNRPPRLPRPRPRPLKAPRP | -0.0472
34 | RRIRNRPPRLPRPRPRPLKMPRP | -0.136
35 | RRIRNRPPRLPRPRPRPLLFPRP | -0.188
36 | RRIRNRPPRLPRPRPRPLMCPRP | 0.141
37 | RRIRNRPPRLPRPRPRPLQDPRP | -0.247
38 | RRIRNRPPRLPRPRPRPLQVPRP | -0.136
39 | RRIRNRPPRLPRPRPRPLRCPRP | 0.0876
40 | RRIRNRPPRLPRPRPRPLRGPRP | 0.654
41 | RRIRNRPPRLPRPRPRPLRIPRP | 0.0934
42 | RRIRNRPPRLPRPRPRPLRMPRP | 0.361
43 | RRIRNRPPRLPRPRPRPLSPPRP | -0.215
44 | RRIRNRPPRLPRPRPRPLWFPRP | 0.0185
45 | RRIRNRPPRLPRPRPRPLYFPRP | -0.477
46 | RRIRNRPPRLPRPRPRPLYSPRP | -0.761
47 | RRIRNRPPRLPRPRPRPMALPRP | -0.0652
48 | RRIRNRPPRLPRPRPRPMAYPRP | -0.161
49 | RRIRNRPPRLPRPRPRPMFEPRP | 0.29
50 | RRIRNRPPRLPRPRPRPMFSPRP | -0.186

Row | Sequence | shrunken log2 fold change
51 | RRIRNRPPRLPRPRPRPMFTPRP | -0.211
52 | RRIRNRPPRLPRPRPRPMGMPRP | -0.0761
53 | RRIRNRPPRLPRPRPRPMGQPRP | 0.128
54 | RRIRNRPPRLPRPRPRPMHMPRP | -0.00926
55 | RRIRNRPPRLPRPRPRPMITPRP | -0.0996
56 | RRIRNRPPRLPRPRPRPMKRPRP | 0.0981
57 | RRIRNRPPRLPRPRPRPMLIPRP | -0.0638
58 | RRIRNRPPRLPRPRPRPMLQPRP | 0.00157
59 | RRIRNRPPRLPRPRPRPMNEPRP | 0.0961
60 | RRIRNRPPRLPRPRPRPMNKPRP | 0.0642
61 | RRIRNRPPRLPRPRPRPMPGPRP | 0.0352
62 | RRIRNRPPRLPRPRPRPMPVPRP | -0.139
63 | RRIRNRPPRLPRPRPRPMRDPRP | -0.00169
64 | RRIRNRPPRLPRPRPRPMRGPRP | 0.211
65 | RRIRNRPPRLPRPRPRPMRNPRP | 0.115
66 | RRIRNRPPRLPRPRPRPMSMPRP | -0.0143
67 | RRIRNRPPRLPRPRPRPMTLPRP | -0.337
68 | RRIRNRPPRLPRPRPRPMVNPRP | -0.00142
69 | RRIRNRPPRLPRPRPRPMWDPRP | -0.021
70 | RRIRNRPPRLPRPRPRPMWLPRP | 0.0773
71 | RRIRNRPPRLPRPRPRPMWSPRP | -0.095
72 | RRIRNRPPRLPRPRPRPNACPRP | -0.0239
73 | RRIRNRPPRLPRPRPRPNDEPRP | -0.227
74 | RRIRNRPPRLPRPRPRPNDPPRP | 0.188
75 | RRIRNRPPRLPRPRPRPNEQPRP | -0.0324

Row | Sequence | shrunken log2 fold change
76 | RRIRNRPPRLPRPRPRPNFCPRP | -0.0258
77 | RRIRNRPPRLPRPRPRPNFMPRP | -0.269
78 | RRIRNRPPRLPRPRPRPNFTPRP | -0.197
79 | RRIRNRPPRLPRPRPRPNGKPRP | -0.16
80 | RRIRNRPPRLPRPRPRPNGQPRP | -0.0686
81 | RRIRNRPPRLPRPRPRPNIHPRP | -0.457
82 | RRIRNRPPRLPRPRPRPNISPRP | -0.476
83 | RRIRNRPPRLPRPRPRPNIYPRP | -0.42
84 | RRIRNRPPRLPRPRPRPNKGPRP | -0.134
85 | RRIRNRPPRLPRPRPRPNKLPRP | -0.36
86 | RRIRNRPPRLPRPRPRPNLHPRP | -0.728
87 | RRIRNRPPRLPRPRPRPNLWPRP | 0.315
88 | RRIRNRPPRLPRPRPRPNMMPRP | -0.25
89 | RRIRNRPPRLPRPRPRPNNQPRP | -0.703
90 | RRIRNRPPRLPRPRPRPNPDPRP | -0.322
91 | RRIRNRPPRLPRPRPRPNRDPRP | -0.0094
92 | RRIRNRPPRLPRPRPRPNRTPRP | -0.0201
93 | RRIRNRPPRLPRPRPRPNTGPRP | 0.0312
94 | RRIRNRPPRLPRPRPRPNTHPRP | -0.584
95 | RRIRNRPPRLPRPRPRPNWCPRP | 0.23
96 | RRIRNRPPRLPRPRPRPNWNPRP | -0.691
97 | RRIRNRPPRLPRPRPRPNWRPRP | 0.216
98 | RRIRNRPPRLPRPRPRPNWSPRP | -0.106
99 | RRIRNRPPRLPRPRPRPNYQPRP | -0.599
100 | RRIRNRPPRLPRPRPRPNYVPRP | -0.0488

Row | Sequence | shrunken log2 fold change
101 | RRIRNRPPRLPRPRPRPPAAPRP | 0.676
102 | RRIRNRPPRLPRPRPRPPARPRP | 0.746
103 | RRIRNRPPRLPRPRPRPPCQPRP | -0.294
104 | RRIRNRPPRLPRPRPRPPDQPRP | 0.184
105 | RRIRNRPPRLPRPRPRPPDSPRP | 0.0377
106 | RRIRNRPPRLPRPRPRPPFCPRP | 0.19
107 | RRIRNRPPRLPRPRPRPPHAPRP | 0.22
108 | RRIRNRPPRLPRPRPRPPHHPRP | -0.11
109 | RRIRNRPPRLPRPRPRPPHWPRP | 0.406
110 | RRIRNRPPRLPRPRPRPPKEPRP | -0.166
111 | RRIRNRPPRLPRPRPRPPKPPRP | 0.145
112 | RRIRNRPPRLPRPRPRPPMHPRP | 0.0449
113 | RRIRNRPPRLPRPRPRPPPGPRP | 0.863
114 | RRIRNRPPRLPRPRPRPPPMPRP | 0.678
115 | RRIRNRPPRLPRPRPRPPQIPRP | 0.013
116 | RRIRNRPPRLPRPRPRPPQKPRP | 0.544
117 | RRIRNRPPRLPRPRPRPPQYPRP | -0.0544
118 | RRIRNRPPRLPRPRPRPPRCPRP | 0.389
119 | RRIRNRPPRLPRPRPRPPRNPRP | 0.196
120 | RRIRNRPPRLPRPRPRPPVLPRP | 0.124
121 | RRIRNRPPRLPRPRPRPPVNPRP | -0.249
122 | RRIRNRPPRLPRPRPRPPWMPRP | -0.00995
123 | RRIRNRPPRLPRPRPRPQAPPRP | 0.31
124 | RRIRNRPPRLPRPRPRPQARPRP | -0.0332
125 | RRIRNRPPRLPRPRPRPQCAPRP | -0.0727

Row | Sequence | shrunken log2 fold change
126 | RRIRNRPPRLPRPRPRPQCKPRP | -0.0743
127 | RRIRNRPPRLPRPRPRPQCWPRP | 0.057
128 | RRIRNRPPRLPRPRPRPQCYPRP | -0.136
129 | RRIRNRPPRLPRPRPRPQDLPRP | -0.11
130 | RRIRNRPPRLPRPRPRPQERPRP | 0.0235
131 | RRIRNRPPRLPRPRPRPQFHPRP | -0.28
132 | RRIRNRPPRLPRPRPRPQGHPRP | -0.296
133 | RRIRNRPPRLPRPRPRPQGRPRP | -0.0865
134 | RRIRNRPPRLPRPRPRPQHAPRP | -0.0717
135 | RRIRNRPPRLPRPRPRPQISPRP | 0.00683
136 | RRIRNRPPRLPRPRPRPQIVPRP | -0.0891
137 | RRIRNRPPRLPRPRPRPQKQPRP | 0.00917
138 | RRIRNRPPRLPRPRPRPQLGPRP | -0.124
139 | RRIRNRPPRLPRPRPRPQMLPRP | -0.409
140 | RRIRNRPPRLPRPRPRPQNCPRP | 0.0292
141 | RRIRNRPPRLPRPRPRPQNKPRP | -0.666
142 | RRIRNRPPRLPRPRPRPQNPPRP | -0.117
143 | RRIRNRPPRLPRPRPRPQQRPRP | -0.0535
144 | RRIRNRPPRLPRPRPRPQRFPRP | -0.155
145 | RRIRNRPPRLPRPRPRPQRIPRP | -0.47
146 | RRIRNRPPRLPRPRPRPQSRPRP | 0.181
147 | RRIRNRPPRLPRPRPRPQVCPRP | 0.0261
148 | RRIRNRPPRLPRPRPRPQWAPRP | -0.188
149 | RRIRNRPPRLPRPRPRPQWPPRP | 0.00622
150 | RRIRNRPPRLPRPRPRPQWTPRP | -0.0119
